Assay results from patent US20220120736A1, “METHODS AND ASSAYS FOR MODULATING GENE TRANSCRIPTION BY MODULATING CONDENSATES” (Whitehead Institute for Biomedical Research, priority 2018, published 2022).

Tested on: WNT-responsive reporter gene
Assay: Luciferase assay with synthetic WNT-reporter (10 copies of TCF/LEF motif)
Type: cell-based
Conditions: overexpression in HEK293T cells
Procedure: (FIG. 56A) Schematic of the ChIP experiment. TdTomato-tagged wild type or aromatic mutant β-catenin were stably integrated in mES cells under a doxycycline-inducible promoter. Doxycycline was added to the media 24 hours prior to crosslinking. ChIP was preformed using antibodies against TdTomato. TRE=Tetracycline responsive element. (FIG. 56B) (Top) ChIP-qPCR of ectopically-expressed wild type or aromatic mutant β-catenin at Myc, Sp5, and Klf4 enhancers. Error bars indicate standard deviation of three replicates. Stars indicate p-values obtained by a t-test <0.05. (Bottom) RT-qPCR of mRNA levels after ectopic expression of wild type or aromatic mutant β-catenin of Myc, Sp5, and Klf4. Error bars indicate standard deviation of three replicates. Stars indicate p-values obtained by a t-test <0.05. (FIG. 56C) Luciferase assay using a synthetic WNT-reporter containing 10 copies of the consensus TCF/LEF motif were wild type or aromatic mutant β-catenin was overexpressed in HEK293T cells. Average of 3 biological replicates is shown. Error bars show the standard deviation. Star indicates p-value obtained by a t-test <0.05.
We independently tested the ability of the β-catenin aromatic mutant to transactivate a WNT-responsive reporter gene in a luciferase assay with wild type and mutant forms of β-catenin (FIG. 56C).

B1: wild type β-catenin: wild type β-catenin overexpressed in HEK293T cells (protein, UniProt P35222 2-781, looked up)
Catenin beta-1: ATQADLMELDMAMEPDRKAAVSHWQQQSYLDSGIHSGATTTAPSLSGKGNPEEEDVDTSQVLYEWEQGFSQSFTQEQVADIDGQYAMTRAQRVRAAMFPETLDEGMQIPSTQFDAAHPTNVQRLAEPSQMLKHAVVNLINYQDDAELATRAIPELTKLLNDEDQVVVNKAAVMVHQLSKKEASRHAIMRSPQMVSAIVRTMQNTNDVETARCTAGTLHNLSHHREGLLAIFKSGGIPALVKMLGSPVDSVLFYAITTLHNLLLHQEGAKMAVRLAGGLQKMVALLNKTNVKFLAITTDCLQILAYGNQESKLIILASGGPQALVNIMRTYTYEKLLWTTSRVLKVLSVCSSNKPAIVEAGGMQALGLHLTDPSQRLVQNCLWTLRNLSDAATKQEGMEGLLGTLVQLLGSDDINVVTCAAGILSNLTCNNYKNKMMVCQVGGIEALVRTVLRAGDREDITEPAICALRHLTSRHQEAEMAQNAVRLHYGLPVVVKLLHPPSHWPLIKATVGLIRNLALCPANHAPLREQGAIPRLVQLLVRAHQDTQRRTSMGGTQQQFVEGVRMEEIVEGCTGALHILARDVHNRIVIRGLNTIPLFVQLLYSPIENIQRVAAGVLCELAQDKEAAEAIEAEGATAPLTELLHSRNEGVATYAAAVLFRMSEDKPQDYKKRLSVELTSSLFRTEPMAWNETADLGLDIGAQGEPLGYRQDDPSYRSFHSGGYGQDALGMDPMMEHEMGGHHPGADYPVDGLPDLGHAQDLMDGLPPGDSNQLAWFDTDL
increase in luciferase activity: 8 fold
